From US6114132A, “Prosphatase binding assay” (Merck Frosst Canada & Co., priority 1997, dated 2000)
Residue numbers refer to the chain shown, from its start. Each block holds one molecule with its values, some of them ahead of it. Square brackets hold non-standard residues; d marks the D form. Peptide text beside a SMILES is read from it. * marks the point of attachment. F2Pmp = N[C@@H](Cc1ccc(C(F)(F)P(=O)(O)O)cc1)C(=O)O; Bz = O=C(c1ccccc1)*

Key:
[1] = target: T1, human recombinant GST-PTP1B, mutated (Ser215) (Homo sapiens, UniProt P18031, C215S); assay: GST-PTP1B SPA binding assay with mutated enzyme (Ser215)
T1 construct: Human recombinant PTP1B, containing amino acids 1-320; made in house; host or cells: bacteria (E. coli DH5alpha named for the transformation)
T1 sequence (P18031 1-320 C215S): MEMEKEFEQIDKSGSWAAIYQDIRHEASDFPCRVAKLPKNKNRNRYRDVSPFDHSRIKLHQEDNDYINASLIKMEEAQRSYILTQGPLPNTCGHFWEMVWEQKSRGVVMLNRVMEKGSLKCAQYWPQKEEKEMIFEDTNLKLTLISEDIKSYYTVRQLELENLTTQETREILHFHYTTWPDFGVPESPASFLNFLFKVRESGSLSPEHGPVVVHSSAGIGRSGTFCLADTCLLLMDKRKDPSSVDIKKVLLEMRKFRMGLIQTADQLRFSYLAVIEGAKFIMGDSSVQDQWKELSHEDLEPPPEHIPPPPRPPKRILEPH
Description: (§1) ID No. 7) contains active site serine(215).
(§2) IC50 Binding Assay Protocol
(§3) To each well is added the following solutions @ 25° C. in the following chronological order:
(§4) 1. 110 μl of assay buffer.
(§5) 3. 10 μl. of testing compound in DMSO at 10 different concentrations in serial dilution (final DMSO, about 5% v/v) in duplicate @ 25° C.
(§6) 4. 10 μl. of 3.75 μg/ml purified human recombinant GST-PTP1B in enzyme dilution buffer.
(§7) 5. The plate is shaken for 2 minutes.
(§8) 6. 10 μl. of 0.3 μg/ml anti-glutathione S-transferase (anti-GST) rabbit IgG (Molecular Probes) diluted in antibody dilution buffer @ 25° C.
(§9) 7. The plate is shaken for 2 minutes.
(§10) 8. 50 μl. of protein A-PVT SPA beads (Amersham) @ 25° C.
(§11) 9. The plate is shaken for 5 minutes. The binding signal is quantified on a Microbeta 96-well plate counter.
(§12) 10. The non-specific signal is defined as the enzyme-ligand binding in the absence of anti-GST antibody.
(§13) 11. 100% binding activity is defined as the enzyme-ligand binding in the presence of anti-GST antibody, but in the absence of the testing ligands with the non-specific binding subtracted.
(§14) 12. Percentage of inhibition is calculated accordingly.
(§15) 13. IC50 value is approximated from the non-linear regression fit with the 4-parameter/multiple sites equation (described in: "Robust Statistics", New York, Wiley, by P. J. Huber (1981) and reported in nM units.

[2] = target: T2, human recombinant GST-PTP1B, non-mutated (Cys215) (Homo sapiens, UniProt P18031); assay: GST-PTP1B SPA binding assay with non-mutated (Cys215) enzyme; details: read-out: % inhibition, Non-Mutated
T2 construct: Human recombinant PTP1B, containing amino acids 1-320; made in house; host or cells: E. coli
T2 sequence (P18031 1-320): T1 sequence (P18031 1-320 C215S) with S215C
Description: as §1, §2, §3, §4, §5, §6, §7, §8, §9, §10, §11, §12, §13, §14, §15

[3] = system: PTP1B; assay: inhibition of PTP1B; type: biochemical; details: type of constant not stated
[4] = target: GST-PTP1B, mutated (Ser215): GST-PTP-1B Cys215Ser mutant, human PTP1B amino acids 1-320 fused to GST (human); assay: SPA competition binding assay against tritiated BzN-EJJ-CONH2, GST-PTP1B mutated (Ser215)
[5] = target: GST-PTP1B, non-mutated (Cys215): human recombinant PTP1B amino acids 1-320 fused to GST enzyme (glutathione S-transferase) (human); assay: SPA competition binding assay against tritiated BzN-EJJ-CONH2, GST-PTP1B non-mutated (Cys215)
[6] = target: T3, GST-PTP1B, non-mutated (Cys215): human recombinant PTP1B amino acids 1-320 fused to GST enzyme (glutathione … (human)); assay: as above
T3 chain: T1 sequence (P18031 1-320 C215S) with S215C
Description: 1. 110 μl of assay buffer. 2. […] 3. 10 μl. of testing compound in DMSO at 10 different concentrations in serial dilution (final DMSO, about 5% v/v) in duplicate @ 25° C. 4. 10 μl. of 3.75 μg/ml purified human recombinant GST-PTP1B in enzyme dilution buffer. 5. The plate is shaken for 2 minutes. 6. 10 μl. of 0.3 μg/ml anti-glutathione S-transferase (anti-GST) rabbit IgG (Molecular Probes) diluted in antibody dilution buffer @ 25° C. 7. The plate is shaken for 2 minutes. 8. 50 μl. of protein A-PVT SPA beads (Amersham) @ 25° C. 9. The plate is shaken for 5 minutes. The binding signal is quantified on a Microbeta 96-well plate counter. 10. The non-specific signal is defined as the enzyme-ligand binding in the absence of anti-GST antibody. 11. 100% binding activity is defined as the enzyme-ligand binding in the presence of anti-GST antibody, but in the absence of the testing ligands with the non-specific binding subtracted. 12. Percentage of inhibition is calculated accordingly.

[7] = target: PTP1B tyrosine phosphatase (construct not stated) (human)
[8] = phosphatase activity of expressed PTP-1B constructs; type: biochemical; details: expressed (E. coli for GST-PTP-1B) protein
Text: The full length human PTP-1B cDNA sequence (published in J. Chernoff et al., PNAS, USA, supra) cloned into a PET vector was obtained from Dr. Raymond Erickson (Harvard University). The PTP-1B CDNA sequence encoding amino acids 1-320 (Seq. ID No. 1) was amplified by PCR using the full length sequence as template. […] The amplified fragment was cloned into pCR2 (Invitrogen) and sequenced to insure that no sequence errors had been introduced by Taq polymerase during the amplification. This sequence was released from pCR2 by a Bam HI/Eco RI digest and the PTP-1B cDNA fragment ligated into the GST fusion vector pGEX-2T (Pharmacia) that had been digested with the same enzymes. […] This same 1-320 PTP-1B sequence (Seq. ID No. 1) was then cloned into the expression vector pFLAG-2, where FLAG is the octa-peptide […] This was done by releasing the PTP-1B sequence from the pGEX-2T vector by Nco I/Eco RI digest, filling in the ends of this fragment by Klenow and blunt-end ligating into the blunted Eco RI site of pFLAG2. Site-directed mutagenesis was performed on pFLAG2-PTP-1B plasmid using the Chameleon (Stratagene) double-stranded mutagenesis kit from Stratagene, to replaced the active-site Cys-215 with serine. The mutagenesis was carried out essentially as described by the manufacturer and mutants identifed by DNA sequencing. […]

[9] = read-out: % inhibition, Mutated

Molecule: COc1cc(OC)c(OC)cc1CCN=CCc1ncc[nH]1 [Amine]
- inhibition at 2 µM [1, 9]: 10%
- inhibition at 2 µM [2]: 67%

Molecule: NC(=O)[C@H](Cc1ccc(C(F)(F)P(=O)(O)O)cc1)NC(=O)[C@H](Cc1ccc(C(F)(F)P(=O)(O)O)cc1)NC(=O)[C@H](CCC(=O)O)NC(=O)c1ccccc1 [BzN-EJJ-CONH2, N-Benzoyl-L-glutamyl-[4-phosphono(difluoromethyl)]-L-phenylalanyl-[4-phosphono(difluoromethyl)]-L-phenylalanineamide] (Bz-Glu-[F2Pmp]-[F2Pmp]-NH2)
- binding of substrate analog to mutated enzyme ([1]; mutated enzyme, truncated, amino acids 1-320): high affinity
- active inhibitor of PTP1B [3]: 5 nM

Molecule: OO [Hydrogen peroxide]
- inhibition at 83 µM [1, 9]: 0%
- inhibition at 83 µM [2]: 90%

- IC50 [4]: 100 nM
- IC50 [5]: 400 nM
Molecule: DADE(F2PMP)L hexapeptide

- IC50 [6]: 14 nM
- inhibitor of PTP1B [7]: 5 nM
- IC50 [4]: 8 nM
Molecule: Bz-Glu-[F2Pmp]-[F2Pmp]-NH2

B1: FLAG-PTP-1B Cys215Ser mutant: FLAG-tagged PTP-1B with active-site Cys-215 replaced with serine (Seq. ID No. 7) (protein, UniProt P18031 1-435, looked up, variant C215S)
Tyrosine-protein phosphatase …: MEMEKEFEQIDKSGSWAAIYQDIRHEASDFPCRVAKLPKNKNRNRYRDVSPFDHSRIKLHQEDNDYINASLIKMEEAQRSYILTQGPLPNTCGHFWEMVWEQKSRGVVMLNRVMEKGSLKCAQYWPQKEEKEMIFEDTNLKLTLISEDIKSYYTVRQLELENLTTQETREILHFHYTTWPDFGVPESPASFLNFLFKVRESGSLSPEHGPVVVHSSAGIGRSGTFCLADTCLLLMDKRKDPSSVDIKKVLLEMRKFRMGLIQTADQLRFSYLAVIEGAKFIMGDSSVQDQWKELSHEDLEPPPEHIPPPPRPPKRILEPHNGKCREFFPNHQWVKEETQEDKDCPIKEEKGSPLNAAPYGIESMSQDTEVRSRVVGGSLRGAQAASPAKGEPSLPEKDEDHALSYWKPFLVNMCVATVLTAGAYLCYRFLFNSNT
modifications: FLAG tag
- phosphatase activity [8]: not to have any phosphatase activity

B2: GST-PTP-1B fusion protein: PTP-1B amino acids 1-320 fused to GST, expressed in E. Coli (protein)
chain: T1 sequence (P18031 1-320 C215S) with S215C
- phosphatase activity [8]: active protein tyrosine phosphatase activity
